Experiment [1] concerns the target HOL-18, 18 kDa chitotriose-binding lectin from Halichondria okadai (Halichondria okadai). The experiment is described as follows: SDS-PAGE after timed heat treatment; purified lectin in sample buffer (0.2% SDS, with or without 2% 2-mercaptoethanol) heated at 70 °C for 5-60 min; the 36 kDa dimer was retained up to 15 min and dissociated within 20-30 min.
The target is the same in experiment [2]. The experiment in a line: SEC; gel permeation chromatography on Superdex 75 (1.0 x 32 cm), HPLC, 0.5 mL/min, 20 ug purified lectin, native conditions, calibrated with marker proteins. (In general: SEC sorts molecules by how far they enter the pores of the column.)
The target of experiment [3] is porcine stomach mucin (porcine). The experiment is described as follows: SPR; PSM coupled to a CM5 chip (5800 RU), HOL-18 as analyte in HBS buffer, 20 uL/min, 25 °C, BIAcore 3000, 1:1 model, BIAevaluation 3.0; bound lectin removed with 200 mM D-GlcNAc.
The target of experiment [4] is HOL-18, 18 kDa chitotriose-binding lectin from Halichondria okadai (Halichondria okadai).

This note sets out measurements from article PMC3386633.

What is called stoichiometry N is the number of molecules, sites or subunits per partner or assembly. A word on the Kd: it is the free concentration of one partner at which half of the binding sites on the other are occupied at equilibrium, for simple one-to-one binding. The low end stands for a tighter complex, the high end for a looser complex. As a reminder, the koff is a measure of how fast the partners let go of each other. Lower therefore signals a long-lived complex. In general, kon refers to the second-order rate constant of association. As for “HOL-18, 18 kDa chitotriose-binding lectin from Halichondria okadai (natural protein)”, the stoichiometry N in experiment [1] worked out at 2. Also, the stoichiometry N in experiment [2] was found to be 4. Also, in experiment [3], the Kd was 4.4 µM, the koff amounted to 0.0061 s⁻¹ and the kon stood at 1400 M⁻¹ s⁻¹.
As for porcine stomach mucin (natural protein), the minimum inhibitory concentration of the hemagglutination of human type A erythrocytes by HOL-18 (16 HA units) in experiment [4] was determined as 10 µg/mL.
Still for that read-out and setting: then “bovine submaxillary mucin (natural protein)”, with 125 µg/mL.

B1: fetuin (natural protein)
chain: IPLDPVAGYKEPACDDPDTEQAALAAVDYINKHLPRGYKHTLNQIDSVKVWPRRPTGEVYDIEIDTLETTCHVLDPTPLANCSVRQQTQHAVEGDCDIHVLKQDGQFSVLFTKCDSSPDSAEDVRKLCPDCPLLAPLNDSRVVHAVEVALATFNAESNGSYLQLVEISRAQFVPLPVSVSVEFAVAATDCIAKEVVDPTKCNLLAEKQYGFCKGSVIQKALGGEDVRVTCTLFQTQPVIPQPQPDGAEAEAPSAVPDAAGPTPSAAGPPVASVVVGPSVVAVPLPLHRAHYDLRHTFSGVASVESSSGEAFHVGKTPIVGQPSIPGGPVRLCPGRIRYFKI
modifications: O-linked oligosaccharides and sialyl N-acetyllactosamine (Neu5Acα2-3/6Galβ1-4GlcNAc) chains in complex-type N-linked glycans
With B1, the minimum inhibitory concentration of the hemagglutination of human type A erythrocytes by HOL-18 (16 HA units) in experiment [4] amounted to 125 µg/mL.
